We go through 9 molecules from US20190233495A1 (Sanofi, published 2019).

For the assay, the target named is T1, RXFP1 receptor (UniProt Q9HBX9 1-757, limits assumed).
T1 sequence (looked up): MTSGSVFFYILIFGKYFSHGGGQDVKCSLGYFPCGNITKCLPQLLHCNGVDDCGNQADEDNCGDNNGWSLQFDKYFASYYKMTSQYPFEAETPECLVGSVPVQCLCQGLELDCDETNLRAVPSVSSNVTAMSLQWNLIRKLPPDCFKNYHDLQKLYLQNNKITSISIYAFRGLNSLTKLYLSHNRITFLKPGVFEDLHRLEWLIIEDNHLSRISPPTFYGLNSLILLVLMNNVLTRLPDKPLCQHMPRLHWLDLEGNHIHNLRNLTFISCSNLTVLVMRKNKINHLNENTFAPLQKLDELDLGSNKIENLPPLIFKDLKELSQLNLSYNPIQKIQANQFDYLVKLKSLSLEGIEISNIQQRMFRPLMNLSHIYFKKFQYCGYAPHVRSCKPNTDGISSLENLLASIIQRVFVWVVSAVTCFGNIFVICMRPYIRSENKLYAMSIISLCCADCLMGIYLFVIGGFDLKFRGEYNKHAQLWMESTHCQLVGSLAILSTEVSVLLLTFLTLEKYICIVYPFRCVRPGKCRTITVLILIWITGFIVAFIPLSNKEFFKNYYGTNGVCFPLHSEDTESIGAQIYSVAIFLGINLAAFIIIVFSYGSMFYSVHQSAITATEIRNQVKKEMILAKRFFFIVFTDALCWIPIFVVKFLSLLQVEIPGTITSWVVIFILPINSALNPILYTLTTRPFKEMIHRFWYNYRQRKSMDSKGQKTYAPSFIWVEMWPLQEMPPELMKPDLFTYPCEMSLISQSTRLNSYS
Put plainly: cell-based or functional assay.

Non-standard residues stand in square brackets, D forms with d. αMeK = C[C@](N)(CCCCN)C(=O)O; Nle = CCCC[C@H](N)C(=O)O; Aib = CC(C)(N)C(=O)O

B1: SEQ ID NO: 21 (peptide)
peptide: Ac-LEGREKVRAQI[Aib][Aib]EG[Nle]STWS[Aib]RKK(Ac)-NH2
SMILES: CCCC[C@H](NC(=O)CNC(=O)[C@H](CCC(=O)O)NC(=O)C(C)(C)NC(=O)C(C)(C)NC(=O)[C@@H](NC(=O)[C@H](CCC(N)=O)NC(=O)[C@H](C)NC(=O)[C@H](CCCNC(=N)N)NC(=O)[C@@H](NC(=O)[C@H](CCCCN)NC(=O)[C@H](CCC(=O)O)NC(=O)[C@H](CCCNC(=N)N)NC(=O)CNC(=O)[C@H](CCC(=O)O)NC(=O)[C@H](CC(C)C)NC(C)=O)C(C)C)[C@@H](C)CC)C(=O)N[C@@H](CO)C(=O)N[C@H](C(=O)N[C@@H](Cc1c[nH]c2ccccc12)C(=O)N[C@@H](CO)C(=O)NC(C)(C)C(=O)N[C@@H](CCCNC(=N)N)C(=O)N[C@@H](CCCCN)C(=O)N[C@@H](CCCCNC(C)=O)C(N)=O)[C@@H](C)O
With B1, the “cAMP assay in OVCAR 5 cells EC50” value amounted to 32.8 nM and the “cAMP assay in OVCAR 5 cells Emax” value came to 96%.

B2: SEQ ID NO: 19 (peptide)
peptide: Ac-LEGREKVRA[Aib]I[Aib][Aib]EG[Nle]STWSKRKK-NH2
SMILES: CCCC[C@H](NC(=O)CNC(=O)[C@H](CCC(=O)O)NC(=O)C(C)(C)NC(=O)C(C)(C)NC(=O)[C@@H](NC(=O)C(C)(C)NC(=O)[C@H](C)NC(=O)[C@H](CCCNC(=N)N)NC(=O)[C@@H](NC(=O)[C@H](CCCCN)NC(=O)[C@H](CCC(=O)O)NC(=O)[C@H](CCCNC(=N)N)NC(=O)CNC(=O)[C@H](CCC(=O)O)NC(=O)[C@H](CC(C)C)NC(C)=O)C(C)C)[C@@H](C)CC)C(=O)N[C@@H](CO)C(=O)N[C@H](C(=O)N[C@@H](Cc1c[nH]c2ccccc12)C(=O)N[C@@H](CO)C(=O)N[C@@H](CCCCN)C(=O)N[C@@H](CCCNC(=N)N)C(=O)N[C@@H](CCCCN)C(=O)N[C@@H](CCCCN)C(N)=O)[C@@H](C)O
In the case of B2, the “cAMP assay in OVCAR 5 cells EC50” value was determined as 18.2 nM and the “cAMP assay in OVCAR 5 cells Emax” value worked out at 97%.

B3: SEQ ID NO: 22 (peptide)
peptide: Ac-LEGREKVRAQI[Aib][Aib]EG[Nle]STWA[Aib]RKK-NH2
SMILES: CCCC[C@H](NC(=O)CNC(=O)[C@H](CCC(=O)O)NC(=O)C(C)(C)NC(=O)C(C)(C)NC(=O)[C@@H](NC(=O)[C@H](CCC(N)=O)NC(=O)[C@H](C)NC(=O)[C@H](CCCNC(=N)N)NC(=O)[C@@H](NC(=O)[C@H](CCCCN)NC(=O)[C@H](CCC(=O)O)NC(=O)[C@H](CCCNC(=N)N)NC(=O)CNC(=O)[C@H](CCC(=O)O)NC(=O)[C@H](CC(C)C)NC(C)=O)C(C)C)[C@@H](C)CC)C(=O)N[C@@H](CO)C(=O)N[C@H](C(=O)N[C@@H](Cc1c[nH]c2ccccc12)C(=O)N[C@@H](C)C(=O)NC(C)(C)C(=O)N[C@@H](CCCNC(=N)N)C(=O)N[C@@H](CCCCN)C(=O)N[C@@H](CCCCN)C(N)=O)[C@@H](C)O
For B3, the “cAMP assay in OVCAR 5 cells EC50” value came to 57.1 nM and the “cAMP assay in OVCAR 5 cells Emax” value came to 102%.

B4: SEQ ID NO: 23 (peptide)
peptide: Ac-LEGREKVRAQI[Aib][Aib]EG[Nle]STWT[Aib]RKK-NH2
SMILES: CCCC[C@H](NC(=O)CNC(=O)[C@H](CCC(=O)O)NC(=O)C(C)(C)NC(=O)C(C)(C)NC(=O)[C@@H](NC(=O)[C@H](CCC(N)=O)NC(=O)[C@H](C)NC(=O)[C@H](CCCNC(=N)N)NC(=O)[C@@H](NC(=O)[C@H](CCCCN)NC(=O)[C@H](CCC(=O)O)NC(=O)[C@H](CCCNC(=N)N)NC(=O)CNC(=O)[C@H](CCC(=O)O)NC(=O)[C@H](CC(C)C)NC(C)=O)C(C)C)[C@@H](C)CC)C(=O)N[C@@H](CO)C(=O)N[C@H](C(=O)N[C@@H](Cc1c[nH]c2ccccc12)C(=O)N[C@H](C(=O)NC(C)(C)C(=O)N[C@@H](CCCNC(=N)N)C(=O)N[C@@H](CCCCN)C(=O)N[C@@H](CCCCN)C(N)=O)[C@@H](C)O)[C@@H](C)O
For the molecule B4, the “cAMP assay in OVCAR 5 cells EC50” value was determined as 128 nM and the “cAMP assay in OVCAR 5 cells Emax” value is 95%.

B5: SEQ ID NO: 24 (peptide)
peptide: Ac-LEGREKVRAK(Ac)I[Aib][Aib]EG[Nle]STWS[Aib]RKK-NH2
SMILES: CCCC[C@H](NC(=O)CNC(=O)[C@H](CCC(=O)O)NC(=O)C(C)(C)NC(=O)C(C)(C)NC(=O)[C@@H](NC(=O)[C@H](CCCCNC(C)=O)NC(=O)[C@H](C)NC(=O)[C@H](CCCNC(=N)N)NC(=O)[C@@H](NC(=O)[C@H](CCCCN)NC(=O)[C@H](CCC(=O)O)NC(=O)[C@H](CCCNC(=N)N)NC(=O)CNC(=O)[C@H](CCC(=O)O)NC(=O)[C@H](CC(C)C)NC(C)=O)C(C)C)[C@@H](C)CC)C(=O)N[C@@H](CO)C(=O)N[C@H](C(=O)N[C@@H](Cc1c[nH]c2ccccc12)C(=O)N[C@@H](CO)C(=O)NC(C)(C)C(=O)N[C@@H](CCCNC(=N)N)C(=O)N[C@@H](CCCCN)C(=O)N[C@@H](CCCCN)C(N)=O)[C@@H](C)O
As to B5, the “cAMP assay in OVCAR 5 cells EC50” value was found to be 47.9 nM and the “cAMP assay in OVCAR 5 cells Emax” value came to 92%.

B6: SEQ ID NO: 25 (peptide)
peptide: Ac-LEGREKVRAK(Ac)I[Aib][Aib]EG[Nle]STWSK(Ac)RKKK-NH2
SMILES: CCCC[C@H](NC(=O)CNC(=O)[C@H](CCC(=O)O)NC(=O)C(C)(C)NC(=O)C(C)(C)NC(=O)[C@@H](NC(=O)[C@H](CCCCNC(C)=O)NC(=O)[C@H](C)NC(=O)[C@H](CCCNC(=N)N)NC(=O)[C@@H](NC(=O)[C@H](CCCCN)NC(=O)[C@H](CCC(=O)O)NC(=O)[C@H](CCCNC(=N)N)NC(=O)CNC(=O)[C@H](CCC(=O)O)NC(=O)[C@H](CC(C)C)NC(C)=O)C(C)C)[C@@H](C)CC)C(=O)N[C@@H](CO)C(=O)N[C@H](C(=O)N[C@@H](Cc1c[nH]c2ccccc12)C(=O)N[C@@H](CO)C(=O)N[C@@H](CCCCNC(C)=O)C(=O)N[C@@H](CCCNC(=N)N)C(=O)N[C@@H](CCCCN)C(=O)N[C@@H](CCCCN)C(=O)N[C@@H](CCCCN)C(N)=O)[C@@H](C)O
On to B6, for which the “cAMP assay in OVCAR 5 cells EC50” value came out at 4.2 nM and the “cAMP assay in OVCAR 5 cells Emax” value is 100%.

B7: SEQ ID NO: 20 (peptide)
peptide: Ac-LEGREKVRA[Aib]I[Aib][Aib]EG[Nle]STWS[αMeK]RKK-NH2
SMILES: CCCC[C@H](NC(=O)CNC(=O)[C@H](CCC(=O)O)NC(=O)C(C)(C)NC(=O)C(C)(C)NC(=O)[C@@H](NC(=O)C(C)(C)NC(=O)[C@H](C)NC(=O)[C@H](CCCNC(=N)N)NC(=O)[C@@H](NC(=O)[C@H](CCCCN)NC(=O)[C@H](CCC(=O)O)NC(=O)[C@H](CCCNC(=N)N)NC(=O)CNC(=O)[C@H](CCC(=O)O)NC(=O)[C@H](CC(C)C)NC(C)=O)C(C)C)[C@@H](C)CC)C(=O)N[C@@H](CO)C(=O)N[C@H](C(=O)N[C@@H](Cc1c[nH]c2ccccc12)C(=O)N[C@@H](CO)C(=O)N[C@@](C)(CCCCN)C(=O)N[C@@H](CCCNC(=N)N)C(=O)N[C@@H](CCCCN)C(=O)N[C@@H](CCCCN)C(N)=O)[C@@H](C)O
Take B7: the “cAMP assay in OVCAR 5 cells EC50” value worked out at 1.8 nM and the “cAMP assay in OVCAR 5 cells Emax” value turned out to be 97%.

B8: SEQ ID NO: 3 (peptide)
peptide: Ac-LEGREKVRAQI[Aib][Aib]EG[Nle]STWS[Aib]RKK-NH2
SMILES: CCCC[C@H](NC(=O)CNC(=O)[C@H](CCC(=O)O)NC(=O)C(C)(C)NC(=O)C(C)(C)NC(=O)[C@@H](NC(=O)[C@H](CCC(N)=O)NC(=O)[C@H](C)NC(=O)[C@H](CCCNC(=N)N)NC(=O)[C@@H](NC(=O)[C@H](CCCCN)NC(=O)[C@H](CCC(=O)O)NC(=O)[C@H](CCCNC(=N)N)NC(=O)CNC(=O)[C@H](CCC(=O)O)NC(=O)[C@H](CC(C)C)NC(C)=O)C(C)C)[C@@H](C)CC)C(=O)N[C@@H](CO)C(=O)N[C@H](C(=O)N[C@@H](Cc1c[nH]c2ccccc12)C(=O)N[C@@H](CO)C(=O)NC(C)(C)C(=O)N[C@@H](CCCNC(=N)N)C(=O)N[C@@H](CCCCN)C(=O)N[C@@H](CCCCN)C(N)=O)[C@@H](C)O
B8: the “cAMP assay in OVCAR 5 cells EC50” value was 12 nM and the “cAMP assay in OVCAR 5 cells Emax” value worked out at 97%.

B9: SEQ ID NO: 18 (peptide)
peptide: Ac-LEGREKVRAAI[Aib][Aib]EGMSKWS[Aib]RK-NH2
SMILES: CC[C@H](C)[C@H](NC(=O)[C@H](C)NC(=O)[C@H](C)NC(=O)[C@H](CCCNC(=N)N)NC(=O)[C@@H](NC(=O)[C@H](CCCCN)NC(=O)[C@H](CCC(=O)O)NC(=O)[C@H](CCCNC(=N)N)NC(=O)CNC(=O)[C@H](CCC(=O)O)NC(=O)[C@H](CC(C)C)NC(C)=O)C(C)C)C(=O)NC(C)(C)C(=O)NC(C)(C)C(=O)N[C@@H](CCC(=O)O)C(=O)NCC(=O)N[C@@H](CCSC)C(=O)N[C@@H](CO)C(=O)N[C@@H](CCCCN)C(=O)N[C@@H](Cc1c[nH]c2ccccc12)C(=O)N[C@@H](CO)C(=O)NC(C)(C)C(=O)N[C@@H](CCCNC(=N)N)C(=O)N[C@@H](CCCCN)C(N)=O
Regarding B9, the “cAMP assay in OVCAR 5 cells EC50” value was 52.1 nM and the “cAMP assay in OVCAR 5 cells Emax” value came to 104%.
